Assay results published in PMC11098500.
Values joined by “and” are separate entries in the source; they are usually repeats but may differ in a detail not shown here. Equal values may be shown once.

Columns and labels:
[1] = biological target: domestic dog ACE2 ectodomain (residues 1-614), Fc-tagged (domestic dog); assay: SPR
[2] = biological target: raccoon dog ACE2 ectodomain (residues 1-614), Fc-tagged (raccoon dog) (UniProt B4XEP4); assay: SPR

Substance | Kd [1] | Kd [2]
SARS-CoV-2 RBD (prototypic strain, residues 319-529), His-tagged (from UniProt P0DTC2 319-529) (domain or fragment) | 518 nM and 524 nM and 361 nM | 297 nM and 449 nM and 450 nM
SARS-CoV-2 RBD (residues 319-529), His-tagged (from UniProt P0DTC2 319-529) (domain or fragment) | 468 nM | 
